Columns and labels:
IL-18BP (Homo sapiens) = IL-18BP (Homo sapiens) (UniProt O95998); conditions: cited from earlier work
[1] = target: mouse IL-18 binding protein (mouse) (UniProt Q9Z0M9); assay: SPR
mouse IL-18 binding protein (mouse), sequence (Q9Z0M9 31-193): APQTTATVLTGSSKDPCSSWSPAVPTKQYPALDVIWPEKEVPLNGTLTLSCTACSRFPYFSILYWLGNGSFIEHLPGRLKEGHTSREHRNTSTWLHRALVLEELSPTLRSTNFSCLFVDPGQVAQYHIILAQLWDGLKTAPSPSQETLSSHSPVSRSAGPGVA

IL-18, sequence (Q14116 37-193): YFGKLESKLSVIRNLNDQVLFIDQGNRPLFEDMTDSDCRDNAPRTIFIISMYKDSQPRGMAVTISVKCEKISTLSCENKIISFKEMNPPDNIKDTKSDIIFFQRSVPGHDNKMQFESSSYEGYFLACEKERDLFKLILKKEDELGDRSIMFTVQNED
IL-18BP (Homo sapiens), sequence (O95998 31-194): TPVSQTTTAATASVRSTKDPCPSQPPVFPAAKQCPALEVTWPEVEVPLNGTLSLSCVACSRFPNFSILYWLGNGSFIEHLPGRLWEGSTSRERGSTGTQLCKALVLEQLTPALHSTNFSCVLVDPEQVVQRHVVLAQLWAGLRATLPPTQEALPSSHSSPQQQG

Row | Kd [1] | Substance | Kd (IL-18BP (Homo sapiens))
1 | – | IL-18 (from UniProt Q14116) | < 0.001 µM
2 | > 10 µM | decoy-resistant IL-18 variant CS2 (consensus sequence 2), DR-18 (from UniProt P70380 37-192) (ligand) | –
